Values quoted from earlier work, collected in PMC8900815.

Target: His124 (UniProt position 124, EWVKGHAGHPE)
Assay: NMR
Conditions: metal-free (no divalent cation bound)

## Ribonuclease HI (RNase HI) (Escherichia coli)
  pKa: around 7
